According to article PMC7196632, “NAD^+ biosynthesis in bacteria is controlled by global carbon/nitrogen levels via PII signaling” (The Journal of Biological Chemistry, 2020):

Experiments:
ScNadE2 (ScNadE^Gln) = molecular target: T1, ScNadE2 (ScNadE^Gln) (Synechocystis sp. PCC 6803, UniProt P74292); experiment: discontinuous assay of PPi release (EnzChek pyrophosphate kit); format: biochemical; conditions: no PII (2 uM BSA); 100 nM enzyme, 4 mM ATP, 2 mM NaAD, 4 mM L-glutamine, 10 mM MgCl2, pH 8, 30 C
T1 construct: gene nadE; full-length, N-terminal His-tag removed with TEV protease, recombinant from E. coli (pTEV5-based pASnadESc); dimer
T1 sequence (P74292 1-558): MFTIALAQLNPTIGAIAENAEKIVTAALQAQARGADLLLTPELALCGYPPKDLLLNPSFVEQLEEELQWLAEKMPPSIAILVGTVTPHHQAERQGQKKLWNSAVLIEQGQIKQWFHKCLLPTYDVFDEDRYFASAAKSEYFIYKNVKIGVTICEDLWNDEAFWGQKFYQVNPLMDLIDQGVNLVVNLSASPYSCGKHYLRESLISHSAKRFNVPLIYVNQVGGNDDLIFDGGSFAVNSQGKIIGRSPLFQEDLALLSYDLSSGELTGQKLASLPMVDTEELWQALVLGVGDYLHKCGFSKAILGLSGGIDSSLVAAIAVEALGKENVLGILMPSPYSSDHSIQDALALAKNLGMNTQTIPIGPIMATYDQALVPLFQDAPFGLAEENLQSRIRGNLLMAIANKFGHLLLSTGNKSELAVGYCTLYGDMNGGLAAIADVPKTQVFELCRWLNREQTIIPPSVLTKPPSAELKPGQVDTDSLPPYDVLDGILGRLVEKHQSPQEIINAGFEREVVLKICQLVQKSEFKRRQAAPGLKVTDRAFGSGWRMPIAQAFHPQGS

[1] = molecular target: T2, GlnZ-AbNadE2 complex (NAD+ site on AbNadE2) (Azospirillum baldaniorum, UniProt A0A9P1JPD2); experiment: as above; format: biochemical
T2 construct: gene nadE; with Nitrogen regulatory protein P-II 2

AbNadE2 (AbNadE2^Gln) = molecular target: T3, AbNadE2 (AbNadE2^Gln) (Azospirillum baldaniorum, UniProt A0A9P1JPD2); experiment: as above; format: biochemical; conditions: read-out: IC50 (also called Ki)
T3 construct: gene nadE; full-length, untagged ('native AbNadE2'), recombinant from E. coli, purified as described previously; homodimer
T3 sequence (A0A9P1JPD2 1-554): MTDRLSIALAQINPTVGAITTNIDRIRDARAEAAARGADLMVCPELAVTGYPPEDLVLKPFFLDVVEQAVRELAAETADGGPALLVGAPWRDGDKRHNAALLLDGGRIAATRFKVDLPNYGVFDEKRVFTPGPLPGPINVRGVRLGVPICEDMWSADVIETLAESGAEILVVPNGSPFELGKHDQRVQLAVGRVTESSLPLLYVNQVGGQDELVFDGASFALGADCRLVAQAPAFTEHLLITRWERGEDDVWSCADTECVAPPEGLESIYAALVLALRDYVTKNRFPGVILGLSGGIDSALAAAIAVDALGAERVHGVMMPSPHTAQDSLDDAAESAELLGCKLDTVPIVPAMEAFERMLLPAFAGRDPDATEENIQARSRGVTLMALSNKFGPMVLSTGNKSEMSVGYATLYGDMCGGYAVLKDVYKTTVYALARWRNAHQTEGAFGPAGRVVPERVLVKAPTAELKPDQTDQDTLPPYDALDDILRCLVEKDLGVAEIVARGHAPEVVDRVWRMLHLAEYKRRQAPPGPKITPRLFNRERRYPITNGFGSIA

HsNadE2 (HsNadE2^Gln) = molecular target: T4, HsNadE2 (HsNadE2^Gln) (Herbaspirillum seropedicae, UniProt D8IX05); experiment: as above; format: biochemical; conditions: no PII (2 uM BSA); 100 nM enzyme, 4 mM ATP, 2 mM NaAD, 4 mM L-glutamine, 10 mM MgCl2, pH 8, 30 C
T4 construct: gene nadE; full-length, His-tag removed by thrombin, recombinant from E. coli; dimer
T4 sequence (D8IX05 1-565): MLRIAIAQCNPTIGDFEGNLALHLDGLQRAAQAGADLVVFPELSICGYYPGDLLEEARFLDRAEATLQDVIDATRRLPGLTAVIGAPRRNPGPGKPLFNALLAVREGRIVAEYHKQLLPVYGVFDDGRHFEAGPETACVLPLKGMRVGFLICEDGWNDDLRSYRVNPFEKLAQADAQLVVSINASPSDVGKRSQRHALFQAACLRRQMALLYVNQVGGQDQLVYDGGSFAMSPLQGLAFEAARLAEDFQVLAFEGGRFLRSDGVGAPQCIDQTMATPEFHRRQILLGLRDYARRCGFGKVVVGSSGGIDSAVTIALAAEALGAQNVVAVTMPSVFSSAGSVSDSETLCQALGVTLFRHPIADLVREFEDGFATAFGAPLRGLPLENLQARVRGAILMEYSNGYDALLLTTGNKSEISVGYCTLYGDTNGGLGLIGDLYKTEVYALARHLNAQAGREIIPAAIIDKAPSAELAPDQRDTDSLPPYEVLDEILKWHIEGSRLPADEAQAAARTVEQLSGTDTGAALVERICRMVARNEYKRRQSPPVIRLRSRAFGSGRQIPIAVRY

[2] = molecular target: N-terminal His-tagged GlnZ protein of Azospirillum brasilense (Azospirillum brasilense) (UniProt P70731); experiment: BLI; Octet K2; His-GlnZ (2 ug/ml) immobilised on Ni-NTA sensor tip, AbNadE2 30-2000 nM (dimer) as analyte, with ATP (legend: 5 mM MgCl2, 1 mM ATP; methods: 50 mM Tris-HCl pH 7, 50 mM KCl, 10 mM MgCl2, 2 mM ATP, 2.5 mM NAD+, 1 mg/ml BSA)
[3] = molecular target: N-terminal His-tagged GlnZ protein of Azospirillum brasilense (Azospirillum brasilense) (UniProt P70731); experiment: BLI; Octet K2; His-GlnZ immobilised on Ni-NTA sensor tip, AbNadE2 as analyte, with ADP (methods: 50 mM Tris-HCl pH 7, 50 mM KCl, 10 mM MgCl2, 2 mM ADP, 2.5 mM NAD+, 1 mg/ml BSA)
[4] = molecular target: T5, GlnZ (with AbNadE2; 2-OG site on GlnZ) (Azospirillum brasilense, UniProt P70731); experiment: loss of GlnZ relief of NAD+ inhibition of AbNadE2 (PPi release); format: biochemical
T5 construct: GlnZ homotrimer, non-uridylylated (native in activity assay; N-terminal His-tag kept in BLI), recombinant from E. coli; with Glutamine-dependent NAD(+) synthetase

[5] = molecular target: T5, GlnZ (with AbNadE2; 2-OG site on GlnZ); experiment: biolayer interferometry, inhibition of GlnZ-AbNadE2 association; format: binding
Method: biolayer interferometry, inhibition of GlnZ-AbNadE2 association on GlnZ (with AbNadE2; 2-OG site on GlnZ) | The binding curves and Ki were determined using the manufactureŕs software

[6] = molecular target: Azospirillum brasilense type 2 glutamine-dependent NAD synthetase AbNadE2, native (untagged), purified (Azospirillum brasilense)
purified protein = substrate: NC(=O)CC[C@H](N)C(=O)O; experiment: purified protein; conditions: without NAD+, pH 8, 30 C
[7] = substrate: Nc1ncnc2c1ncn2[C@@H]1O[C@H](COP(=O)(O)OP(=O)([O-])OC[C@H]2O[C@@H]([n+]3cccc(C(=O)O)c3)[C@H](O)[C@@H]2O)[C@@H](O)[C@H]1O; experiment: NAD synthetase activity, Michaelis-Menten fit; format: biochemical, Azospirillum baldaniorum; conditions: without NAD+, pH 8, 30 C

Chain of N-terminal His-tagged GlnZ protein of Azospirillum brasilense (Azospirillum brasilense) (P70731 entry or part of it): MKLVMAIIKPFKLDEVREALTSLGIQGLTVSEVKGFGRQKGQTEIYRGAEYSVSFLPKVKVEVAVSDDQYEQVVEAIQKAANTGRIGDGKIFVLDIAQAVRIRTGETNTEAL
T5 sequence (P70731 1-112, one chain of several): as the sequence (P70731 entry or part of it) above
T2 sequence (P70731 1-112 partner, one chain of several): as the sequence (P70731 entry or part of it) above
Chain of Azospirillum brasilense type 2 glutamine-dependent NAD synthetase AbNadE2, native (untagged), purified (Azospirillum brasilense) (A0A0P0EJG6 entry or part of it): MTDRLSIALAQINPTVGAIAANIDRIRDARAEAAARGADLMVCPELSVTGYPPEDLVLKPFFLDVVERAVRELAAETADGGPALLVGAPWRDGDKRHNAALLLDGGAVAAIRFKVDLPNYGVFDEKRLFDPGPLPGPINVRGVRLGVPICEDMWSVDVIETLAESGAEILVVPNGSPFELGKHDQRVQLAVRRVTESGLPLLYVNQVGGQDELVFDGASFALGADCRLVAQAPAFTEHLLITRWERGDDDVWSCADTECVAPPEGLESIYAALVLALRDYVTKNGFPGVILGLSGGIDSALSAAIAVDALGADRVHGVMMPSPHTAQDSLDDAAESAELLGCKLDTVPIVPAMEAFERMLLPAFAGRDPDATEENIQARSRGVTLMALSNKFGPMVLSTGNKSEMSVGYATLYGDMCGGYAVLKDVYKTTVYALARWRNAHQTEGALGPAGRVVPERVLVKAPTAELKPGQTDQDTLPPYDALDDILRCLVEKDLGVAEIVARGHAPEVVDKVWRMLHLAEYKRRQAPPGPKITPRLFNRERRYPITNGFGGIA

NC(=O)c1ccc[n+]([C@@H]2O[C@H](COP(=O)([O-])OP(=O)(O)OC[C@H]3O[C@@H](n4cnc5c(N)ncnc54)[C@H](O)[C@@H]3O)[C@@H](O)[C@H]2O)c1 [NAD^+]
relative activity vs NAD+ concentration (ScNadE2 (ScNadE^Gln)): In both cases, NadE2^Gln was inhibited by NAD^+ in a dose-dependent manner | IC50 [1]: 2500 µM | IC50 (AbNadE2 (AbNadE2^Gln)): 1000 µM | relative activity vs NAD+ concentration (HsNadE2 (HsNadE2^Gln)): In both cases, NadE2^Gln was inhibited by NAD^+ in a dose-dependent manner

Azospirillum brasilense type 2 glutamine-dependent NAD synthetase AbNadE2, native (untagged), purified (enzyme)
Kd [2]: 0.3 µM | koff [2]: 0.0272 s⁻¹ | kon [2]: 90900 M⁻¹ s⁻¹ | Kd [3]: 0.15 µM

O=C(O)CCC(=O)C(=O)O [2-oxoglutarate]
IC50 [4]: 15.5 µM | Ki [5]: 52.1 µM

N-terminal His-tagged GlnZ protein of Azospirillum brasilense (from UniProt P70731 1-112) (natural protein)
activation of AbNadE2 NAD synthetase activity (PPi formation) at 2.5 mM NAD+, 100 nM AbNadE2, GlnZ 0.25-10 uM (trimer); Kact [6]: 640 nM

B1: AbNadE2 (AbNadE2^Gln) (Azospirillum baldaniorum) (protein)
chain: T3 sequence (A0A9P1JPD2 1-554)
notes: full-length, untagged ('native AbNadE2'), recombinant from E. coli, purified as described previously; homodimer
Km (purified protein): 720 µM | Km [7]: 80 µM
